# Experimental data published in patent publication US8012929B2, “Peptides directed for diagnosis and treatment of amyloid-associated diseases” (Tel Aviv University Future Technology Development L.P., priority 2002, dated 2011).
# “Also recorded” adds a separate entry of the source. Square brackets hold non-standard residues; d marks the D form. Ends that are not written are not given here. Aib = CC(C)(N)C(=O)O
# Tests used:
# Format in all cases: physicochemical
# [1] = Transmission electron microscopy of wild-type and Aib modified hIAPP peptides; conditions: 5 mM peptide, aged 4 days (wt) or 10 days (modified)
# Method: Peptide solutions—freshly prepared stock solutions were prepared by dissolving the lyophilized form of the peptides in dimethyl sulfoxide (DMSO) at a concentration of 100 mM. To avoid any pre-aggregation, fresh stock solutions were prepared for each experiment. […] Transmission Electron Microscopy—a 10 μL sample of 5 mM peptide solution in 10 mM Tris buffer, pH 7.2 aged for 4 days (for wt peptides) and for 10 days (for modified peptides) was placed on 400-mesh copper grids (SPI supplies, West Chester Pa.) covered by carbon-stabilized Formvar film. After 1 minute, excess fluid was removed, and the grid was then negatively stained with 2% uranyl acetate in water for another 2 minutes. Samples were viewed in a JEOL 1200EX electron microscope operating at 80 kV.
# [2] = Congo Red staining and birefringence of wild-type and Aib substituted IAPP peptides; conditions: 5 mM peptide aged for 10 days
# Method: (§1) Congo Red Staining and Birefringence—A 10 μL suspension of 5 mM peptide solution in 10 mM Tris buffer, pH 7.2 aged for 10 days was allowed to dry overnight on a glass microscope slide. Staining was performed by the addition of a 10 μL suspension of saturated Congo Red (CR) and NaCl in 80% ethanol (v/v) solution. The solution was filtered via 0.2 μm filter. The slide was then dried for a few hours. Birefringence was determined with a SZX-12 Stereoscope (Olympus, Hamburg, Germany) equipped with cross polarizers. 100× magnification is shown.
# [3] = FT-IR of Aib-modified IAPP peptide fragments; conditions: two week aged peptide solutions
# Method: (§2) Fourier Transform Infrared Spectroscopy—Infrared spectra were recorded using a Nicolet Nexus 470 FT-IR spectrometer with a DTGS detector. Samples of two week aged peptide solutions, were suspended on a CaF2 plate and dried by vacuum. The peptide deposits were resuspended with D2O and subsequently dried to form thin films. The resuspension procedure was repeated twice to ensure maximal hydrogen to deuterium exchange. The measurements were taken using a 4 cm^−1 resolution and 2000 scans averaging. The transmittance minima values were determined by the OMNIC analysis program (Nicolet).
# [4] = Kinetic aggregation assay, turbidity at 405 nm (Example 8); conditions: hIAPP peptide fragments, 8 mg/ml, 8% DMSO, monitored two hours
# Method: Kinetic Aggregation Assay—freshly prepared peptide stock solutions were generated by dissolving the lyophilized form of the peptides in dimethyl sulfoxide (DMSO) at a concentration of 100 mg/ml. To avoid any pre-aggregation, fresh stock solutions were prepared for each experiment. […] Turbidity data were collected at 405 nm. Buffer solution containing the same amount of DMSO as the tested samples was used as blank, which was subtracted from the results. Turbidity was measured continuously at room temperature using THERMOmax ELISA plate reader (Molecular Devices, Sunnyvale Calif.).
# [5] = Congo Red staining and birefringence (Example 9); conditions: hIAPP peptide fragments, 8 mg/ml aged at least one day
# Method: as §1, with “8 mg/ml” for “5 mM”, “at least one day” for “10 days”, “solution as previously described [Puchtler (1966) Supra].” for “solution.”, “0.45” for “0.2”, “for” for “for a”, “polarizers.” for “polarizers. 100× magnification is shown.”
# [6] = Transmission electron microscopy of aged peptides (Example 10); conditions: for structures by electron microscopy: hIAPP peptide fragments, 8 mg/ml aged at least one day
# Method: Transmission Electron Microscopy—A 10 μL sample of 8 mg/ml peptide solution in 10 mM Tris buffer, pH 7.2 aged for at least one day was placed on 400-mesh copper grids (SPI supplies, West Chester Pa.) covered by carbon-stabilized Formvar film. Following 1 minute, excess fluid was removed, and the grid was then negatively stained with 2% uranyl acetate in water for another two minutes. Samples were viewed in a JEOL 1200EX electron microscope operating at 80 kV.
# [7] = Fourier transform infrared spectroscopy of aged peptides (Example 11); conditions: hIAPP peptide fragments, aged solutions from turbidity assay
# Method: as §2, with “of” for “of two week”, “solutions, taken from turbidity assay,” for “solutions,”, “widows (Sigma)-plate” for “plate”, “[…]” for “D2O”
# [8] = Kinetic aggregation assay (turbidity at 405 nm) of IAPP peptide fragment and alanine mutants; conditions: 2 mM peptide, 10 mM Tris pH 7.2, 2% DMSO, room temperature
# Method: To study self-assembly of the IAPP peptide derived fragments, aggregation and insolubilization kinetics were monitored using turbidity measurements at 405 nm.
# Kinetic aggregation assay—Fresh peptide stock solutions were prepared by dissolving lyophilized form of the peptides in DMSO, a disaggregating solvent, at a concentration of 100 mM. To avoid any pre-aggregation, fresh stock solutions were prepared prior to each and every experiment. Peptide stock solutions were diluted into assay buffer and plated in 96-well plates as follows: 2 μl of peptides stock solutions were added to 98 μl of 10 mM Tris pH 7.2, resulting in a 2 mM final concentration of the peptide in the presence of 2% DMSO. Turbidity data was measured at 405 nm. A buffer solution including 2% DMSO was used as a blank. Turbidity was measured at room temperature over several time points.
# [9] = Aggregate mean particle size by dynamic light scattering; conditions: 100 μM peptide, 1% DMSO, 10 mM Tris pH 7.2
# Method: Therefore, the average size of the aggregates, formed by the various peptides, was determined using dynamic light scattering (DLS) experiments.
# Method—Freshly prepared peptide stock solutions at a concentration of 10 mM were diluted in 10 mM Tris buffer pH 7.2 and further filtrated through a 0.2 μm filter to a final concentration of 100 μM peptide and 1% DMSO. Particle size measurement was conducted with a laser-powered ALV-NIBS/HPPS non-invasive backscattering instrument. Autocorrelation data was fitted using the ALV-NIBS/HPPS software to derive average apparent hydrodynamic diameters.
# [10] = Congo red binding assay with polarization microscopy (Example 4)
# Method: Congo red (CR) staining combined with polarization microscopy was utilized to test amyloidogenicity of the peptides of the present invention. […] Invest. 31:232-8; Lansbury (1992) Biochemistry 31:6865-70]. […] Staining was effected by the addition of 1 mM CR in 10 mM Tris buffer pH 7.2 followed by a 1 minute incubation. To remove excess CR, slides were rinsed with double-distilled water and dried. Saturated CR solutions solubilized in 80% ethanol (v/v) were used for poorly aggregating peptides. In such cases, staining was effected without rinsing. Birefringence was determined using a WILD Makroskop m420 (×70) equipped with a polarizing stage.
# [11] = Negative staining electron microscopy of fibril formation (Example 5); conditions: 2 mM peptide incubated overnight
# Method: Method—Peptide solutions (2 mM peptide in 10 mM Tris buffer pH 7.2), were incubated overnight at room temperature. Fibrils formation was assessed using 10 μl sample placed on 200-mesh copper grids, covered with carbon-stabilized formvar film (SPI Supplies, West Chester Pa.). Following 20-30 seconds of incubation, excess fluid was removed and the grids were negatively stained with 2% uranyl acetate in water. Samples were viewed in a JEOL 1200EX electron microscope operating at 80 kV.
# [12] = Kinetic aggregation assay, turbidity at 405 nm (Example 8); conditions: hIAPP 22-29 analogues incubated for 1 week
# [13] = peptide solutions incubated for four days
substance,measurement,setting,value
Aib-NF-Aib-V ([Aib]NF[Aib]V),structures by electron microscopy,[1],no fibrillar structures were evident
same,Congo Red birefringence,[2],no birefringence
same,secondary structure by FT-IR,[3],characteristic to a random coil conformation
FLVHSS,turbidity at 405 nm,[4],high turbidity
same,Congo Red birefringence,[5],typical birefringence
same,structures by electron microscopy,[6],large broad ribbon-like fibrils
same,secondary structure by FT-IR,[7],major minimum at 1626
"N1A: alanine-scan mutant of the hIAPP peptide fragment, SEQ ID NO: 2 (AFGAILSS)",kinetics of aggregation (turbidity at 405 nm),[8],higher kinetics of aggregation
same,apparent hydrodynamic diameter of the structures formed,[9],Smaller structures
same,Congo red binding and birefringence,[10]; [13],bound CR and exhibited the characteristic green/gold birefringence
same,fibril structures by electron microscopy,[11],tangled net-like structures
NFLVH,turbidity at 405 nm,[4],almost no turbidity at all
same,Congo Red birefringence,[5],powerful smear of birefringence at the edges of the sample
same,structures by electron microscopy,[6],thin and short
same,secondary structure by FT-IR,[7],indicative of β-sheet
"wild type peptide: wild-type eight amino-acid hIAPP peptide fragment, NFGAIL motif followed by two serines, SEQ ID NO: 1 (NFGAILSS)",apparent hydrodynamic diameter of the structures formed,[9],very similar hydrodynamic diameters
same,Congo red binding and birefringence,[10]; peptide solution incubated for 14 days,significant CR birefringence
same,Congo red binding and birefringence,[10]; [13],bound CR and exhibited the characteristic green/gold birefringence
same,fibril structures by electron microscopy,[11],tangled net-like structures
"G3A: alanine-scan mutant of the hIAPP peptide fragment, SEQ ID NO: 4 (NFAAILSS)",kinetics of aggregation (turbidity at 405 nm),[8],essentially the same profile as that of wild type peptide
same,apparent hydrodynamic diameter of the structures formed,[9],very similar hydrodynamic diameters
same,Congo red binding and birefringence,[10]; [13],bound CR and exhibited the characteristic green/gold birefringence
same,fibril structures by electron microscopy,[11],tangled net-like structures
ANFLVH,structures by electron microscopy,[1],formed fibrillar structures
same,Congo Red birefringence,[2],typical yellow-green birefringence
same,secondary structure by FT-IR,[3],typical of β-sheet spectra
NVGAILSS,endpoint turbidity,[12],lower extent
FLVH,turbidity at 405 nm,[4],almost no turbidity at all
same,Congo Red birefringence,[5],no birefringence
same,structures by electron microscopy,[6],amorphous aggregates
same,"amyloid fibril formation (EM, CR staining, FT-IR)",[6]; incubated for two months,no evidence for amyloid fibril formation was detected
same,secondary structure by FT-IR,[7],typical to random coil structure
NFLVHSSNN,turbidity at 405 nm,[4],very low turbidity
same,Congo Red birefringence,[5],weaker characteristic birefringence
same,structures by electron microscopy,[6],long thin coiling filaments
same,secondary structure by FT-IR,[7],large β-sheet content
NIGAILSS,endpoint turbidity,[12],some low degree of turbidity
NAGAILSS,endpoint turbidity,[12],lower extent
NLGAILSS,endpoint turbidity,[12],lower extent
NFLVHSS,turbidity at 405 nm,[4],high turbidity
same,Congo Red birefringence,[5],typical birefringence
same,structures by electron microscopy,[6],large broad ribbon-like fibrils
same,secondary structure by FT-IR,[7],classical for an anti-parallel β-sheet structure
Aib-NF-Aib-VH ([Aib]NF[Aib]VH),structures by electron microscopy,[1],no fibrillar structures were evident
same,Congo Red birefringence,[2],no birefringence
same,secondary structure by FT-IR,[3],characteristic to a random coil conformation
ANFLV,structures by electron microscopy,[1],formed fibrillar structures
same,Congo Red birefringence,[2],typical yellow-green birefringence
same,secondary structure by FT-IR,[3],typical of β-sheet spectra
"L6A: leucine to alanine mutant of the hIAPP peptide fragment, SEQ ID NO: 6 (NFGAIASS)",kinetics of aggregation (turbidity at 405 nm),[8],reduced the kinetics of aggregation but did not abolish it completely
same,apparent hydrodynamic diameter of the structures formed,[9],Smaller structures
same,Congo red binding and birefringence,[10]; [13],bound CR and exhibited rare but characteristic birefringence
same,fibril structures by electron microscopy,[11],"lower in comparison to that of wild type; also recorded: More distinct structures and longer fibrils, albeit less frequent"
"I5A: isoleucine to alanine mutant of the hIAPP peptide fragment, SEQ ID NO: 5 (NFGAALSS)",kinetics of aggregation (turbidity at 405 nm),[8],reduced the kinetics of aggregation but did not abolish it completely
same,apparent hydrodynamic diameter of the structures formed,[9],Smaller structures
same,Congo red binding and birefringence,[10]; [13],bound CR and exhibited rare but characteristic birefringence
same,fibril structures by electron microscopy,[11],"lower in comparison to that of wild type; also recorded: More distinct structures and longer fibrils, albeit less frequent"
